The record followed here is patent publication US6403764.

Experiment [1] addresses T1, human IGFBP-1 (human, UniProt P08833 26-259).
T1 construct: mature; Secreted recombinant protein; also called IGFBP-I
T1 sequence (looked up): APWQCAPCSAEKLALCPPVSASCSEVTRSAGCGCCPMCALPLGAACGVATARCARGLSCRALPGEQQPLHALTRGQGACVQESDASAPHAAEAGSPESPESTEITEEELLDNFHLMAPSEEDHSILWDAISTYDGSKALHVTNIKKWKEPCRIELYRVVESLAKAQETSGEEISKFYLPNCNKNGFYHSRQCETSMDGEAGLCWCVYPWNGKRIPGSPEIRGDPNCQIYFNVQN
Briefly: competitive phage ELISA. How it is done: (§1) Phage particles were harvested and resuspended in PBS buffer as described in Lowman, H. B., "Phage Display of Peptide Libraries on Protein Scaffolds," in Cabilly, S. (ed.), *Combinatorial Peptide Library Protocols* (Humana Press Inc.: Totowa, N.J., 1998), pp. 249–264. Then phage concentrations were normalized to yield a maximal ELISA signal of 0.2–0.4 for each mutant (Lowman, in Cabilly, S. (ed.), supra). Threefold serial dilutions of soluble competitor were prepared on non-absorbent microtiter plates (Nunc, F, 96 wells) with binding buffer (0.5% TWEEN™ 20/PBS) containing phage at the previously-determined concentrations. The dilution range of competitor protein extended over six orders of magnitude, starting at 5 µM for IGFBP-1 and 500 nM for IGFBP-3. After blocking, the plates containing immobilized target were washed with 0.05% TWEEN™/PBS buffer and subsequently incubated with 80 µl/well of the premixed phage-competitor solutions for 1 hour at room temperature. […] Numbers in Table I represent mean±standard deviation of individually assessed $IC50$ values.
(§2) At least two different clones of every mutant were tested.
In general terms: An ELISA detects its analyte on a solid surface through an enzyme-linked reagent.

In experiment [2] the target is T2, recombinant human IGFBP-3 (human, UniProt P17936 28-291).
T2 construct: mature; Secreted recombinant protein
Briefly: competitive phage ELISA. How it is done:
as §1, §2

The IC50 is the midpoint of a concentration-inhibition curve.

T2 sequence (P17936 28-291): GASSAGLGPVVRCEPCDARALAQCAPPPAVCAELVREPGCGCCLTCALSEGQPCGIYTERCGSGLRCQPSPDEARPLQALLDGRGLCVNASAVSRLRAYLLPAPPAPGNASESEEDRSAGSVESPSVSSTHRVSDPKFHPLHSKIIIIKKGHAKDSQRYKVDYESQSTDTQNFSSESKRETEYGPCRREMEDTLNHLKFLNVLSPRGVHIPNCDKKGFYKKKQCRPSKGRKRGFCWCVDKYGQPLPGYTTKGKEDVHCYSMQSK

B1: IGF-I D12A displayed on phage (ligand)
chain: SPETLCGAELVAALQFVCGDRGFYFNKPTGYGSSSRRAPQTGIVDECCFRSCDLRRLEMYCAPLKPAKSV
notes: On phage; G1S-A70V template; not shown: M13 gene III fragment (residues 249-406), the display carrier, and its junction
For B1, the values for the half-inhibitory concentration (IC50) in experiment [1] and in experiment [2] were 4.3 nM and 1.49 nM, respectively.

B2: IGF-I D53A displayed on phage (ligand)
chain: SPETLCGAELVDALQFVCGDRGFYFNKPTGYGSSSRRAPQTGIVDECCFRSCALRRLEMYCAPLKPAKSV
notes: On phage; G1S-A70V template; not shown: Display partner: M13 gene III protein fragment (residues 249-406, mature count) and the junction to it
On to B2, for which the half-inhibitory concentration (IC50) in experiment [1] was determined as 15.3 nM; in experiment [2], 1.05 nM.

B3: IGF-I L5A displayed on phage (ligand, not shown: large carriers; small tags and cut ends)
chain: SPETACGAELVDALQFVCGDRGFYFNKPTGYGSSSRRAPQTGIVDECCFRSCDLRRLEMYCAPLKPAKSV
notes: On phage; G1S-A70V template
As for B3, the values for the IC50 in experiment [1] and in experiment [2] were 55.3 nM and 1.53 nM, respectively.

B4: IGF-I K68A displayed on phage (ligand, not shown: large carriers; small tags and cut ends)
chain: SPETLCGAELVDALQFVCGDRGFYFNKPTGYGSSSRRAPQTGIVDECCFRSCDLRRLEMYCAPLKPAASV
notes: On phage; G1S-A70V template
As for B4, the IC50 was 10.5 nM in experiment [1] and 0.76 nM in experiment [2].

B5: IGF-I E3A displayed on phage (ligand, not shown: large carriers; small tags and cut ends)
chain: SPATLCGAELVDALQFVCGDRGFYFNKPTGYGSSSRRAPQTGIVDECCFRSCDLRRLEMYCAPLKPAKSV
notes: On phage; G1S-A70V template
With B5, the half-maximal inhibitory concentration (IC50) is 278 nM in experiment [1] and 1.05 nM in experiment [2].

B6: IGF-I G22A displayed on phage (ligand)
chain: SPETLCGAELVDALQFVCGDRAFYFNKPTGYGSSSRRAPQTGIVDECCFRSCDLRRLEMYCAPLKPAKSV
notes: On phage; G1S-A70V template; not shown: Display carrier: M13 gene III protein fragment (residues 249-406) and the junction to it
For B6, the IC50 in experiment [1] is 15.9 nM; in experiment [2], 2.07 nM.

B7: IGF-I E58A displayed on phage (ligand)
chain: SPETLCGAELVDALQFVCGDRGFYFNKPTGYGSSSRRAPQTGIVDECCFRSCDLRRLAMYCAPLKPAKSV
notes: On phage; G1S-A70V template; not shown: M13 gene III protein fragment (residues 249-406), the phage display carrier, and its junction to IGF-I
With B7, the values for the IC50 in experiment [1] and in experiment [2] were 11.9 nM and 1.03 nM, respectively.

B8: IGF-I E9A displayed on phage (ligand)
chain: SPETLCGAALVDALQFVCGDRGFYFNKPTGYGSSSRRAPQTGIVDECCFRSCDLRRLEMYCAPLKPAKSV
notes: as for B1
Take B8: the half-inhibitory concentration (IC50) in experiment [1] worked out at 8.6 nM; in experiment [2] it was 1.32 nM.

B9: IGF-I F25A displayed on phage (ligand)
chain: SPETLCGAELVDALQFVCGDRGFYANKPTGYGSSSRRAPQTGIVDECCFRSCDLRRLEMYCAPLKPAKSV
notes: as for B6
For B9, the values for the IC50 in experiment [1] and in experiment [2] were 181 nM and 3.69 nM, respectively.

B10: IGF-I F16A displayed on phage (ligand)
chain: SPETLCGAELVDALQAVCGDRGFYFNKPTGYGSSSRRAPQTGIVDECCFRSCDLRRLEMYCAPLKPAKSV
notes: as for B1
For B10, the IC50 came to 57.8 nM in experiment [1] and 1.32 nM in experiment [2].

B11: IGF-I G19A displayed on phage (ligand)
chain: SPETLCGAELVDALQFVCADRGFYFNKPTGYGSSSRRAPQTGIVDECCFRSCDLRRLEMYCAPLKPAKSV
notes: as for B1
Consider B11, for which the IC50 in experiment [1] amounted to 11 nM; in experiment [2], 0.9 nM.

B12: IGF-I K27A displayed on phage (ligand)
chain: SPETLCGAELVDALQFVCGDRGFYFNAPTGYGSSSRRAPQTGIVDECCFRSCDLRRLEMYCAPLKPAKSV
notes: as for B6
B12: the IC50 was found to be 12.8 nM in experiment [1] and 0.66 nM in experiment [2].

B13: IGF-I K65A displayed on phage (ligand)
chain: SPETLCGAELVDALQFVCGDRGFYFNKPTGYGSSSRRAPQTGIVDECCFRSCDLRRLEMYCAPLAPAKSV
notes: as for B7
In the case of B13, the figures for the IC50 in experiment [1] and in experiment [2] were 12.4 nM and 0.69 nM, respectively.

B14: IGF-I F23A displayed on phage (ligand)
chain: SPETLCGAELVDALQFVCGDRGAYFNKPTGYGSSSRRAPQTGIVDECCFRSCDLRRLEMYCAPLKPAKSV
notes: as for B6
In the case of B14, the results for the half-maximal inhibitory concentration (IC50) in experiment [1] and in experiment [2] were 10.9 nM and 2.18 nM, respectively.

B15: IGF-I D20A displayed on phage (ligand)
chain: SPETLCGAELVDALQFVCGARGFYFNKPTGYGSSSRRAPQTGIVDECCFRSCDLRRLEMYCAPLKPAKSV
notes: as for B6
As for B15, the IC50 in experiment [1] is 8.4 nM; in experiment [2] it was 1.11 nM.
